From the RNAGym collection of RNA variant scans (doi:10.1073/pnas.2313332121)

B1: TPR t1 (parent)
chain: GACCAAUCUGCCCUCAGAGCUCGAGAACAUCUUCGGAUGCAGAGGAGGCAGGCUUCGGUGGCGCGAUAGCGCCAACGUCCUCAACCUCCAAUGCAUCCCACCACAUGAUGAUGCCUGAAGAGCCUUGGUUUUUUG

Variants of: B1
Assay: polymerase ribozyme fitness, log enrichment relative to wild type (log ratio); higher = more active; in vitro selection for triplet polymerase activity
Outline: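 Only genotypes with ≥10 input reads and ≥1 read per output were kept after Illumina sequencing of input and output libraries. These libraries were PCR-built, transcribed mutants of each subunit of a heterodimeric triplet polymerase ribozyme, each put through one triplicate in vitro selection round with frozen incubation at −7 °C, gel excision of extended constructs, streptavidin-bead capture and RT-PCR. Fitness is a logarithmic ratio of genotype enrichment to wild-type enrichment, from inverse-variance-weighted replicate averages, with the logarithm in base 2.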

Compared with GACCAAUCUGCCCUCAGAGCUCGAGAACAUCUUCGGAUGCAGAGGAGGCAGGAUUCGGUGGCGCGAUAGCGCCAACGUCCUCAACCUUCAAUGCAUCCCAACACAUGAUGAUGCCUGAAGAGCCUUGGUUUUUUG, GACCAAUCUGCCCUCAGAGCUCGAGAACAUCUUCGGAUGCAGAGGAGGCAGGAUUCGGUGGCGCGAUAGCGCCAACGUACUCAACCUCCAAUGCAUCCCACCACAUGAUGAUGCCUGAAGAGCCUUGAUUUUUUG is lower in “polymerase ribozyme fitness (log ratio)” value: 0.356 for the first, -3.36 for the second.

Compared with GACCAAUCUGCCCUCAGAGCUCGAGAACAUCUUCGGAUGCAGAGGAGGCAGGAUUCGGUGGCGCGAUAGCGCCAACGUCCUCAACCUACAAUGCAUCCCACCACAUGAUGAUGCCUGAAGAGCCUUGGUUUUUUG, GACCAAUCUGCCCUCAGAGCUCGAGAACAUCUUCGGAUGCAGAGGAGGCAGGAUUCGGUGGCGCGAUAGCGUCAACGUCCUCAACCUCCAAUGCAUCUCACCACAUGAUGAUGCCUGAAGAGUCUUGGUUUUUUG is lower in “polymerase ribozyme fitness (log ratio)” value: -0.22 for the first, -3.81 for the second.

First: GACCAAUCUGCCCUCAGAGCUCGAGAACAUCUUCGGAUGCAGAGGAGGCAGGAUUCGGUGGCGCGAUAGCGCCAACGUCCUCAAACUCCAAUGCAUCCCACCACAUGAUGAUGCCUGAAGAGCCUUGGUUUUUUU
Second: GACCAAUCUGCCCUCAGAGCUCGAGAACAUCUUCGGAUGCAGAGGAGGCAGGAUUCGGUGGCGCGAUAGCGCCAACGUCCUCAAACUCCAAUGCAUCCCACCACAUGAUGAUGCCUAAAGAGCCGUGGUUUUUUG
The “polymerase ribozyme fitness (log ratio)” value of the first is higher: -2.53 for the first, -3.17 for the second.

Compared with GACCAAUCUGCCCUCAGAGCUCGAGAACAUCUUCGGAUGCAGAGGAGGCAGGAUUCGGUAGCGCGAUAGCGUCAACGUCCUCAACCUCCAAUGCAUCCCUCCACAUGAUGAUGCCUGAACAGGCUUGGUUUUUUG, GACCAAUCUGCCCUCAGAGCUCGAGAACAUCUUCGGAUGCAGAGGAGGCAGGAUUCGGUAGCGCGAUAGCGCCAACGUCCUCAACCUCCAAUGCAUCCCACCACAUGAUGAUGCCUGAAGUGCCUUGGUUUUUUG is higher in “polymerase ribozyme fitness (log ratio)” value: -0.938 for the first, 1.33 for the second.

First: GACCAAUCUGCCCUCAGAGCUCGAGAACAUCUUCGGAUGCAGAGGAGGCAGGAUUCGGUGGCGCGAUAGCGCCAACGUCCUCAACCUCCAAUGCAUCCAACCACAUGAUGAUGCCUCGAGAGCCUUGGUUUUUUG
Second: GACCAAUCUGCCCUCAGAGCUCGAGAACAUCUUCGGAUGCAGAGGAGGCAGGAUUCGGUGGCGCGAUAGCGCCAACGUCCUCAACUUCCAAUGCAUCCCACCACAUGAUGAUGCCUGAAGAGCCUUGGUUUUUUG
The “polymerase ribozyme fitness (log ratio)” value of the first is lower: -7.29 for the first, -0.0407 for the second.

First: GACCAAUCUGCCCUCAGAGCUCGAGAACAUCUUCGGAUGCAGAGGAGGCAGGAUUCGGUAGCGCGAUACCGCCAACGUCCUCAACCUCCAAUGCAUCCCACCACAUGAUGAUGCCUGAAGAGCCUUGGUUUUUUG
Second: GACCAAUCUGCCCUCAGAGCUCGAGAACAUCUUCGGAUGCAGAGGAGGCAGGAUUCGGUGGCGCGAUAGCGCCAACGUCCUCAACCUUCAAUGCAUCCCAUCACAUGAUGAUGCCUGAAGAGUCUUGGUUUUUUG
The “polymerase ribozyme fitness (log ratio)” value of the first is lower: -3.47 for the first, 0.64 for the second.

First: GACCAAUCUGCCCUCAGAGCUCGAGAACAUCUUCGGAUGCAGAGGAGGCAGGAUUCGGUGGCGCGAUAGCGCCAACGUCCUCAACCUCCAAUGCAUCCCACCACAUGAUGAUGCUUGAUGAGCCUUGGUUUUUUG
Second: GACCAAUCUGCCCUCAGAGCUCGAGAACAUCUUCGGAUGCAGAGGAGGCAGGAUUCGGUGGCGCGAUAGCGCCAACGUCCUCAACAUCCAAUGCAUCCCACCACAUGAUGAUGCCUGAAGAGCAUUGGUUUUUUG
The “polymerase ribozyme fitness (log ratio)” value of the first is lower: 0.429 for the first, 1.52 for the second.

First: GACCAAUCUGCCCUCAGAGCUCGAGAACAUCUUCGGAUGCAGAGGAGGCAGGAUUCGGUGGCGCGAUAGCGCCAACGUCCUCAACCUCCAAUGUAUCCCACCAUAUGAUGACGCCUGAAGAGCCUUGGUUUUUUG
Second: GACCAAUCUGCCCUCAGAGCUCGAGAACAUCUUCGGAUGCAGAGGAGGCAGGAUUCGGUGGCGCGAUAGCGCCAAAGUCCUCAACCUACAAAGCAUCCCACCACAUGAUGAUGCCUGAAGAGCCUUGGUUUUUUG
The “polymerase ribozyme fitness (log ratio)” value of the first is higher: 1.78 for the first, -5.92 for the second.

First: GACCAAUCUGCCCUCAGAGCUCGAGAACAUCUUCGGAUGCAGAGGAGGCAGGAUUCGGUGGCGCGAUAGCGUCAACGUCCUCAACCUCCAAUGCAUCCCACCAUAUGAUGAUCCCUGAAGAGCCUUGGUUUUUUG
Second: GACCAAUCUGCCCUCAGAGCUCGAGAACAUCUUCGGAUGCAGAGGAGGCAGGAUUCGGUAGCGCGAUAGCGCCAACGUCCUCAACCUCCAAGGCAUCCCACCACAUGAUGAUGCCUGAAGAGCCUUGGUUUUUUG
The “polymerase ribozyme fitness (log ratio)” value of the first is higher: -2.1 for the first, -2.9 for the second.

Going from GACCAAUCUGCCCUCAGAGCUCGAGAACAUCUUCGGAUGCAGAGGAGGCAGGAUUCGGUGGCGCGAUAGCGCAAACGGCCUCAACCUCCAAUGCAUCCCACCACAUGAUUAUGCCUGAAGAGCCUUGGUUUUUUG to GACCAAUCUGCCCUCAGAGCUCGAGAACAUCUUCGGAUGCAGAGGAGGCAGGAUUCGGUGGCGCGAUAGCGCCAACGUCCUCAACCUCCAAUGCAUCACACGACAUGAUGACGCCUGAAGAGCCUUGGUUUUUUG, the “polymerase ribozyme fitness (log ratio)” value falls from -0.702 to -7.27.

For GACCAAUCUGCCCUCAGAGCUCGAGAACAUCUUCGGAUGCAGAGGAGGCAGGAUUCGAUGGCGCGAUAGCGCCAACGUCCUCAACCUCGAAUGCAUCCCACUUCAUGAUGAUGCCUGAAGAGGCUUGGUUUUUUG, the “polymerase ribozyme fitness (log ratio)” value was -5.91.
